In US20240417436A1 (BRIGHT PEAK THERAPEUTICS, published 2024):
One block for each binder: values may come before it. *1 amine or outer side, *2 acyl side, *3 side chain or, on linkers, in order; H or OH if unused. Bridges are numbered along the chain shown (N, C = ends). Primed or numbered codes have the meaning given here. [ ]: non-standard residue; d: D form. cleavable peptide RGRRVANLVG = CC(C)C[C@H](NC(=O)[C@H](CC(N)=O)NC(=O)[C@H](C)NC(=O)[C@@H](NC(=O)[C@H](CCCNC(=N)N)NC(=O)[C@H](CCCNC(=N)N)NC(=O)CNC(=O)[C@H](CCCNC(=N)N)N[*:1])C(C)C)C(=O)N[C@H](C(=O)NCC(=O)[*:2])C(C)C; Ygp = O-(8x polyethylene glycol-amino)-tyrosine; Yn3 = O-(9x polyethylene glycol-azido)-tyrosine; Ygp(3) = O-(PEG8-amino)-tyrosine; Yn3(3) = O-(PEG9-azido)-tyrosine; hSer = N[C@@H](CCO)C(=O)O; Nle = CCCC[C@H](N)C(=O)O

How the values were obtained:
[1] = target: T1, recombinant human IL-2 receptor beta containing a His-tag and Avi-Tag (R&D Systems #AVI10459) (human, UniProt P14784 27-239); assay: BLI (Octet), receptor on SAX2 sensor, IL-2 as analyte; construct CMP-167, intact (not the MMP2-treated row r22)
T1 construct: bought protein, held on the Octet SAX2 sensor; also called CD122; IL-2Rβ
T1 sequence (looked up): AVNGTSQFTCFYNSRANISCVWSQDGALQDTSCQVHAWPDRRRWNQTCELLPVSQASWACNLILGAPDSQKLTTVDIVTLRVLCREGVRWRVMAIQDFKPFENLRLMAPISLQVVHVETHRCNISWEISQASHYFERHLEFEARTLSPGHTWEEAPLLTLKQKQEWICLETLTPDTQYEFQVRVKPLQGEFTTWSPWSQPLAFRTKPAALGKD
Method: (§1) Bilayer interferometry (BLI) assays were used to measure the binding constants between activatable IL-2 polypeptides (and activated versions thereof) to IL-2 receptor subunits or receptor complexes. BLI assays were conducted on an Octet® R8 instrument. Assay plates were 96 well, polypropylene, F-bottom (chimney well), black microplates (Greiner Bio-one, Cat. No: 655209). The biosensors were Octet® SAX2 (Sartorius, Cat. No: 18-5136). The assay buffer was 1× Kinetic Buffer (Sartorius, Cat. no: 18-5136) or Phosphate Buffered Saline (PBS) that contained 0.02% (v: v) Tween 20 (Polysorbate 20) and 0.1% (w/v) bovine serum albumin (BSA). The sensor was regenerated between measurements in 10 mM glycine pH 2.7 buffer.
(§2) Sensor attached receptors were either recombinant human IL-2 receptor beta containing a His-tag and Avi-Tag™ (R&D Systems™ #AVI10459) or an Avi-Tag™ Fc with human IL-2R beta and IL-2R gamma attached (Acrobiosystems Cat. no: ACRB-ILG-H82F3-25UG). Receptors were reconstituted from lyophilized powder to 500 μg/ml in PBS. Analytes were diluted in Kinetic buffer to 300 nM, then serially diluted to lower concentrations.

[2] = target: T2, Avi-Tag Fc with human IL-2R beta and IL-2R gamma attached (Acrobiosystems ACRB-ILG-H82F3-25UG) (human, UniProt P14784 27-239; P31785 23-262); assay: BLI (Octet), receptor on SAX2 sensor, IL-2 as analyte
T2 construct: bought heterodimer; also called CD122 CD132; CD122/CD132 complex
T2 sequence (looked up) 1: T1 sequence (looked up)
T2 sequence (looked up) 2: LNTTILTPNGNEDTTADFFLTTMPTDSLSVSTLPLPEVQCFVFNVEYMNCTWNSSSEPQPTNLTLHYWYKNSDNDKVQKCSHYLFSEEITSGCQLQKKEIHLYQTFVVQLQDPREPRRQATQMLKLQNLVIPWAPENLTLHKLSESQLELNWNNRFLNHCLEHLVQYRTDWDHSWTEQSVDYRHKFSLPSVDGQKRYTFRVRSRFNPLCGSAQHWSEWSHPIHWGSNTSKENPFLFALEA

[3] = target: T1, recombinant human IL-2 receptor beta …; assay: BLI (Octet), receptor on SAX2 sensor, IL-2 as analyte; construct CMP-313
Method: as §1, §2

[4] = target: T1, recombinant human IL-2 receptor beta …; assay: BLI (Octet), receptor on SAX2 sensor, IL-2 as analyte; construct CMP-166, intact (not the MMP2-treated row r19)
Method: as §1, §2

[5] = target: T1, recombinant human IL-2 receptor beta …; assay: BLI (Octet), receptor on SAX2 sensor, IL-2 as analyte; construct CMP-328
Method: as §1, §2

[6] = target: T1, recombinant human IL-2 receptor beta …; assay: BLI (Octet), receptor on SAX2 sensor, IL-2 as analyte

Kd [1]: 215 nM
B1: CMP-167 (ligand)
chain: APTSSSTKKTQLQLEHLLLDLQKILNGINNYKNPKLTR[Nle]L[hSer][Yn3]KF[Ygp][Nle]PKKATELKHLQCLEEELKPLEEVL[hSer]LAQSKNFHLRPRDLISNINVIVLELKGSETTF[hSer]CEYADETATIVEFLNRWITFSQSIISTLT
modifications: disulfide 58-105 (inferred); bridge N-23; not fully specified (bridges); also: cleavable peptide (sequence not given here) joined to N-terminus via glutaryl-PEG9 and to Lys23 side chain

koff [2]: 0.00148 s⁻¹
Kd [3]: 163 nM
B2: CMP-313 (ligand)
chain: APTSSSTKKTQLQLEHLLLDLQK(KKRGRRVANLVG)ILNGINNYKNPKLTR[Nle]L[hSer][Yn3(3)]KF[Ygp(3)][Nle]PKKATELKHLQCLEEELKPLEEVL[hSer]LAQSKNFHLRPRDLISNINVIVLELKGSETTF[hSer]CEYADETATIVEFLNRWITFSQSIISTLT
modifications: disulfide 58-105; also: branched 27x PEG chains on the attached peptide

Kd [4]: 614 nM
B3: CMP-166 (ligand)
chain: APTSSSTKKTQLQLEHLLLDLQKILNGINNYKNPKLTR[Nle]L[hSer][Yn3]KF[Ygp][Nle]PKKATELKHLQCLEEELKPLEEVL[hSer]LAQSKNFHLRPRDLISNINVIVLELKGSETTF[hSer]CEYADETATIVEFLNRWITFSQSIISTLT
modifications: disulfide 58-105 (inferred); bridge N-23; not fully specified (bridges); also: cleavable peptide (sequence not given here) joined to N-terminus via glutaryl-PEG4 and to Lys23 side chain

Kd [5]: 0.034 nM
koff [6]: 0.00154 s⁻¹
kon [6]: 4.52e+07 M⁻¹ s⁻¹
Kd [2]: 24.9 nM
koff [2]: 0.00194 s⁻¹
kon [2]: 77800 M⁻¹ s⁻¹
B4: CMP-328 (ligand)
chain: APTSSSTKKTQLQLEHLLLDLQEILNGINNYKNPKLTR[Nle]L[hSer][Yn3(3)]KF[Ygp(3)][Nle]PKKATELKHLQCLEEELKPLEEVL[hSer]LAQSKNFHLRPRDLISNINVIVLELKGSETTF[hSer]CEYADETATIVEFLNRWITFSQSIISTLT
modifications: disulfide 58-105; linker 9-23 via cleavable peptide RGRRVANLVG; also: macrocycle: cleavable peptide bridging Lys9 and Glu23 side chains (structure drawing only)
